Legend:
protein kinase A = experiment: cell-based or functional assay
[1] = test system: T1, Src-1 optical probe (GEEEIYGEIEK, SEQ. ID. NO: 3)
T1 sequence: GEEEIYGEIEK

[2] = test system: T2, Src-2 optical probe (GEEEIYGVIEK, SEQ. ID. NO: 29), non-phosphorylated
T2 sequence: GEEEIYGVIEK

[3] = test system: T3, phosphorylated Src-2-specific substrate optical probe (SEQ. ID. NO: 29)
T3 sequence: RRFHSRRRR

[4] = test system: T4, phosphorylated abl-specific substrate optical probe (SEQ. I.D. No. 4)
T4 sequence: AEAIYAAPLK

[5] = biological target: T5, abl-specific substrate optical probe (AEAIYAAPL, SEQ. ID. NO: 4), non-phosphorylated
T5 chain: AEAIYAAPLK

“PKI (substrate competitive inhibitor of protein kinase A) (peptide)” gave a 460/530 Emission Ratio, Kinase + the inhibitor PKI (2.8 µM) (negative control 11.67, positive control 2.11) (460/530 emission ratio) (protein kinase A) of 11.7.

Src kinase (Upstate Biotechnology) was tested, and the “apparent Km (fluorescence measurements after protease incubation)” value [1] was 11 µM and 19 µM respectively and the “apparent Km (fluorescence measurements after protease incubation)” value [2] was 11 µM and 19 µM respectively.

With “protein tyrosine phosphatase-B (PTP-B) agarose (Upstate Biotechnology)” the “Kcat/Km (dephosphorylation)” value [3] was “nearly 10^8 M^-1sec^-1”, the “apparent Km (Michaelis-Menten plot, dephosphorylation)” value [3] was “the apparent Km for the Src-2optical probe is 1.3 µM” and the “kcat (dephosphorylation)” value [3] was “the kcat is 79 sec^-1”. For the same molecule, the “relative rate of dephosphorylation” value [3] was “the Src-2 substrate is more readily de-phosphorylated than the abl substrate” and the “relative rate of dephosphorylation” value [4] was “the Src-2 substrate is more readily de-phosphorylated than the abl substrate”.

B1: Recombinant v-Abl kinase (protein)
chain: YITPVNSLEKHSWYHGPVSRNAAEYLLSSGINGSFLVRESESSPGQRSISLRYEGRVYHYRINTASDGKLYVSSESRFNTLAELVHHHSTVADGLITTLHYPAPKRNKPTIYGVSPNYDKWEMERTDITMKHKLGGGQYGEVYEGVWKKYSLTVAVKTLKEDTMEVEEFLKEAAVMKEIKHPNLVQLLGVCTREPPFYIITEFMTYGNLLDYLRECNRQEVSAVVLLYMATQISSAMEYLEKKNFIHRDLAARNCLVGENHLVKVADFGLSRLMTGDTYTAHAGAKFPIKWTAPESLAYNKFSIKSDVWAFGVLLWEIATYGMSPYPGIDLSQVYELLEKDYRMERPEGCPEKVYELMRACWQWNPSDRPSFAEIHQAFETMFQESSISDEVEKELGKRGTRG
In the case of B1, the “apparent Km for the substrate (kinetics of phosphorylation, FRET/chymotrypsin read-out)” value [5] is reported as “apparent Km for the substrate of 40 µM” and the “turnover (kcat) of the optical probe” value [5] is reported as “The turnover of the optical probe by v-Abl was 9.5 sec^-1”.
